Laboratory results reported in patent US20060024313A1, “Agents that disrupt dimer formation in DPP-IV family of prolyl dipeptidases” (priority 2004, published 2006).
“And” between values parts separate entries of the source, which are not always exact repeats. Equal entries are not always repeated.

Tests used:
[1] = tested on: DPP-IV; assay: Kinetic constant measurements with chromogenic substrate H-Gly-Pro-pNA; assay type: biochemical, human; conditions: for Km / kcat: substrate H-Gly-Pro-pNA
[2] = tested on: DPP-IV; assay: Dilution experiment (specific activity after two-fold dilutions); assay type: biochemical, human; conditions: 200 nM to 1.6 nM enzyme, 16 hours at 25° C., 10 uM H-Gly-Pro-pNA
Protocol: Enzyme concentrations ranging from 200 nM to 1.6 nM were used in the dilution experiments. The experiments were carried out with consecutive two-fold dilutions in PBS containing 0.1% BSA and 1 mM DTT (dithiothreitol). The solution after dilution was incubated at 25° C. for 16 hours to ensure attainment of dimer-monomer equilibrium. The reaction was initiated by adding the substrate H-Gly-Pro-pNA at a final concentration of 10 uM for both wild type DPP-IV and H750A proteins. The initial rate of the reaction was recorded and converted to specific activity.

[3] = Size exclusion chromatography (gel filtration, Superdex 200); assay type: physicochemical; conditions: gel filtration experiments; PBS buffer
Protocol: Chemical crosslinking in intact cells was conducted as described (24). Size exclusion chromatography was conducted at 4° C. Purified proteins (0.5 ml at a concentration of 5 uM) were applied to a Superdex 200 10/30 column (10×300-310 mm) pre-equilibrated with PBS. The sample was eluted with the same buffer at 0.3 ml/min and 0.25 ml fractions were collected. The Superdex 200 10/30 column was calibrated with the Stokes Radii of ferritin (6.1 nm), catalase (5.22 nm), aldolase (4.81 nm), albumin (3.55 nm), ovalbumin (3.05 nm) and chymotrypsinogen A (2.09 nm) from Amersham-Pharmacia.

[4] = Analytical ultracentrifugation (AUC): sedimentation velocity and equilibrium; assay type: physicochemical

B1: H750A: DPP-IV mutant, H750 mutated to Ala; mixture of dimer and monomer (protein)
chain: SRKTYTLTDYLKNTYRLKLYSLRWISDHEYLYKQENNILVFNAEYGNSSVFLENSTFDEFGHSINDYSISPDGQFILLEYNYVKQWRHSYTASYDIYDLNKRQLITEERIPNNTQWVTWSPVGHKLAYVWNNDIYVKIEPNLPSYRITWTGKEDIIYNGITDWVYEEEVFSAYSALWWSPNGTFLAYAQFNDTEVPLIEYSFYSDESLQYPKTVRVPYPKAGAVNPTVKFFVVNTDSLSSVTNATSIQITAPASMLIGDHYLCDVTWATQERISLQWLRRIQNYSVMDICDYDESSGRWNCLVARQHIEMSTTGWVGRFRPSEPHFTLDGNSFYKIISNEEGYRHICYFQIDKKDCTFITKGTWEVIGIEALTSDYLYYISNEYKGMPGGRNLYKIQLSDYTKVTCLSCELNPERCQYYSVSFSKEAKYYQLRCSGPGLPLYTLHSSVNDKGLRVLEDNSALDKMLQNVQMPSKKLDFIILNETKFWYQMILPPHFDKSKKYPLLLDVYAGPCSQKADTVFRLNWATYLASTENIIVASFDGRGSGYQGDKIMHAINRRLGTFEVEDQIEAARQFSKMGFVDNKRIAIWGWSYGGYVTSMVLGSGSGVFKCGIAVAPVSRWEYYDSVYTERYMGLPTPEDNLDHYRNSTVMSRAENFKQVEYLLIHGTADDNVHFQQSAQISKALVDVGVDFQAMWYTDEDHGIASSTAHQAIYTHMSHFIKQCFSLP
Km ([1]; High salt buffer): 125 µM
kcat ([1]; High salt buffer): 16 s⁻¹
Km ([1]; PBS buffer): 77 µM
kcat ([1]; PBS buffer): 31 s⁻¹
decrease in kcat ([1]; compared with wild type rDPP-IV): about 3 fold
AUC analysis or catalytic activities in low salt buffer ([1]; low salt buffer compared to PBS buffer (data not shown)): no differences
specific activity on dilution [2]: constant
Stokes' radius (Rs) [3]: 5.7 nm and 4.6 nm
quaternary structure (subunit composition) by sedimentation velocity ([4]; High salt buffer (0.5 M sodium sulfate)): mixture of dimer-monomer
quaternary structure (monomer/dimer) by AUC ([4]; PBS buffer where stated): mixture of DPP-IV dimer and monomer
subunit composition of separated dimer and monomer after incubation ([4]; room temperature for up to 48 hours, after gel filtration): maintain their subunit compositions
